Assays:
[1] = molecular target: full-length Mycobacterium tuberculosis GroEL1 (M. tuberculosis H37Rv) (UniProt P9WPE9); test: SEC
[2] = molecular target: full-length M. tuberculosis GroEL2 (M. tuberculosis, UniProt P9WPE7 1-540); test: peptide or protein array
Sequence of full-length M. tuberculosis GroEL2 (P9WPE7 whole entry): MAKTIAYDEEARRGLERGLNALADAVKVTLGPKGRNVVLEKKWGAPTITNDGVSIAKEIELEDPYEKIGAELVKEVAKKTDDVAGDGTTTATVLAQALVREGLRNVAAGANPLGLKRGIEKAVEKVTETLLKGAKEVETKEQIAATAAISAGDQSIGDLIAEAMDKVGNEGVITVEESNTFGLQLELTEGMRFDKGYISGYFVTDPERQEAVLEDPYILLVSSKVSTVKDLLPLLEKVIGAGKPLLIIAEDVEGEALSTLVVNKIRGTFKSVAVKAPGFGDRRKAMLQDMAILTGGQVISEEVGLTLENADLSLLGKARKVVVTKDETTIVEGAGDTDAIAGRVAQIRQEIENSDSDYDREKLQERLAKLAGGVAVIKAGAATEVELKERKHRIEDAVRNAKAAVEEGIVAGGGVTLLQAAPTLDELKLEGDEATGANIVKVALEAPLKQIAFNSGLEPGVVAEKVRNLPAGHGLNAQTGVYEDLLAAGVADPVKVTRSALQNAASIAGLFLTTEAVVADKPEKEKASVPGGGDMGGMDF

Molecule | stoichiometry N [1] | binding result [2]
full-length Mycobacterium tuberculosis GroEL1 (from UniProt P9WPE9 1-539) (natural protein) | 2 | 
RGAKPLARLLGAGITSDA [KasA peptides Group G (spots F01-F04)] |  | binds
AVGALESVLTVLTLRDGVIP [KasA peptides Group I (spots G20-G24)] |  | binds
APAADGVRAGRAMTRSLELAGL [KasA peptides Group H (spots F12-F17)] |  | binds
GGFPSVVVTAVTATTSIS [KasA peptides Group A (spots A05-A08)] |  | binds

From article PMC3017675 (Journal of molecular biology, 2010)
